# In patent publication US20200138870A1, “RECREATION OF PANCREATIC NICHE ALLOWS FOR NOVEL METHODS FOR HUMAN, MATURE BETA DERIVATION FROM PLURIPOTENT STEM CELLS” (Baylor College of Medicine, priority 2016, published 2020):
# Where “and” joins values, the source holds several entries; their conditions need not be identical. Equal entries are not always repeated.
# B1: WNT5A: secreted growth factor from the human pancreatic niche (R&D), used at 100 or 500 ng/ml (protein)
# chain: IIGAQPLCSQLAGLSQGQKKLCHLYQDHMQYIGEGAKTGIKECQYQFRHRRWNCSTVDNTSVFGRVMQIGSRETAFTYAVSAAGVVNAMSRACREGELSTCGCSRAARPKDLPRDWLWGGCGDNIDYGYRFAKEFVDARERERIHAKGSYESARILMNLHNNEAGRRTVYNLADVACKCHGVSGSCSLKTCWLQLADFRKVGDALKEKYDSAAAMRLNSRGKLVQVNSRFNSPTTQDLVYIDPSPDYCVRNESTGSLGTQGRLCNKTSEGMDGCELMCCGRGYDQFKTVQTERCHCKFHWCCYVKCKKCTEIVDQFVCK
# Legend:
# Type in all cases: cell-based, human
# EPs = test: Proliferation by phospho-histone H3 (pH3) staining after WNT5A treatment
# Description: (§1) Cells were incubated with 5% donkey serum (Jackson ImmunoResearch Laboratories) in PBST (PBS+0.1% Triton-X) for 30 min to avoid nonspecific binding of the antibody and to permeabilize the cells. Primary antibodies, diluted in 5% donkey serum in PBST, were then added and incubated at 4° C. overnight with shaking. After primary antibody incubation, cells were washed 3 times with PBST and secondary antibodies conjugated with Alexa-Fluor Dyes (Jackson ImmunoResearch Laboratories) and diluted in 5% donkey serum in PBST were added to the cells for 30 min at RT. Then, cells were thrice washed with PBST and nuclei were stained with Dapi (Roche Diagnostics). For imaging, Leica DMI6000 or confocal Leica TCS SPE was used. Images were initially processed by LAS X software and then further analyzed and quantified using ImageJ software (NIH, W Rasband, http://rsb.info.nih.gov/ij) using cell counter plug-in. Typically, at least 5 randomly selected images were counted per condition.
# hESC-derived EPs = test: RNA-sequencing of EPs treated with WNT5A
# Description: Total RNA was extracted as described elsewhere herein and RNA quality was assessed using 2100 Bioanalyzer (Agilent Genomics). Samples with RIN≥9 preceded to library preparation using TruSeq stranded mRNA Library Prep Kit LT (Illumina) according to the manufacturer's protocol. Library concentration was determined by qPCR (KAPA Library Quantification Kit) to pool equal amounts of libraries with different adaptor indexes. Sequencing was performed using NextSeq500 (Illumina).
# After preliminary analyses, showing a significant Pearson Correlation Coeficient for gene expression, two biological replicates were concatenated and analysed as single samples. This step yielded four samples, two for each treatment (5 days and 12h), as well as untreated samples. All reads were considered single-end in the bioinformatic analyses.
# For Venn diagram, TFactS analysis and Gene enrichment analysis (GSEA), sequencing reads were first aligned using TopHat and the gene differential expression were assembled and analyzed using Cufflinks. […] To predict which transcription factors are responsible to the gene changes in the sequencing result, TFactS analysis was performed by inputting up and down regulation gene lists. […] For GSEA (http://software.broadinstitute.org/gsea/index.jsp), all input files were generated through GenePattern and the analysis was performed based on the instruction from Broad institute GSEA user guide with the following parameter: phenotype labels as 5dUT versus 5dWNT5A, 1000 genes set of permutations, weighted enrichment statistic, gene sets between 15 to 500, with log 2 ratio of class as metric for ranking genes. […] Data GEO submission number: GSE 90785.
# JNK = test: Western blot for phosphorylated JNK and total JNK; settings: short-term (12h) treatment, 500 ng/ml WNT5A
# Description: ISL1-EGFP hESCs were differentiated into EPs and first balanced with basal media (DMEM with 1% BSA and NEAA) for 6h and then treated with 500 ng/ml WNT5A in basal media. After 12h, cell lysates were collected as imilion of EPs were pelleted, PBS washed and resuspended in 250 μl of lysis buffer (10 mM HEPES pH7.5, 10 mM MgCl2, 5 mM KCl, 0.1 mM EDTA pH8, 0.1% TritonX-100, 0.2 mM PMSF, 1 mM DTT, 1 tab of Complete Protease Inhibitor Cocktail (Roche)). Cell lysates were centrifuged 12,000 g at 4° C. for 15 min and their supernatants were collected. BCA assay were performed using Pierce BCA protein assay kit (Thermo) to determine protein concentration. For Western blot, […] of protein were denatured with 4x Laemmeli buffer (40% glycerol, 8% SDS, 240 mM Tris-HCl pH6.8, 5% β-mercaptoethanol, 12.5 mM EDTA, 0.04% bromophenol blue) at 95° C. 3 min and resolved in 8% SDS-PAGE. PVDF membranes (BioRad) were used for transfer and membrane were blocked with 5% BSA in Tris-buffered saline with 1% Tween 20 (TBST) for 1h before applying primary antibody. Membranes were washed thrice for 10 min and anti-rabbit IgG-HRP (GE Life Science) were added for 3h at RT, followed by three washes. HyGLO™ Quick Spray Chemiluminescent HRP Antibody Detection Reagent (Denville Scientific Inc.) was used to detect antigen and the membrane was developed using CL-XPosure Film (Thermo Scientific). […]
# c-JUN = test: p-c-JUN immunofluorescence in EPs; settings: WNT5A short-term treatment (24h in FIG. 6G)
# Description: as §1
# AP-1 = test: Dual-pathway multicolor luciferase assay, AP-1 reporter; settings: 500 ng/ml WNT5A, after 24h
# Text: The dual-pathway luciferase reporter vector was generated using the GoldenBraid2.0 Assembly Platform (Sarrion-Perdigones et al., 2011; Sarrion-Perdigones et al., 2013). Briefly, transcriptional units comprising the promoter elements, the CDS of the corresponding luciferase and the bovine growth hormone terminator were first assembled, and then these were latter combined in successive rounds of assembly to build the multigenic vector used in this assay. For the multicolor luciferase assay, H1-derived EPs were first dissociated into 96-well plates using method previously described and incubated overnight to allow cell attachment. […] At the determined harvesting point, culture media was removed and wells were washed with PBS. […] 10 μL of LARII reagent was added with the built-in injectors and after 2 seconds, the total light and the BP filtered light emitted by the FLuc and RedF mixture were measured for 1 second. Finally, 15 μL of Stop & Glo® reagent were injected and after 4 seconds the emitted light by Renilla luciferase was measured. The activity corresponding to FLuc and RedF that were simultaneously measured after the LARII reagent was added were calculated according to the method proposed by Nakayima et al (Nakajima et al., 2005) that is adjusted to this particular assay and explained in FIG. 7D.
# [1] = 5-day long treatment with WNT5A
molecule,measurement,setting,value
B1,effect in EP proliferation (in words),EPs; 3 days of WNT5A treatment,modest effect
same,pH3+ cells,EPs; 3 days of WNT5A treatment (1% in control),2%
same,downregulation of GCG,hESC-derived EPs; 5-day WNT5A treatment,5 fold
same,downregulation of MAFB,hESC-derived EPs; 5-day WNT5A treatment,3 fold
same,downregulation of NGN3,hESC-derived EPs; 5-day WNT5A treatment,2 fold
same,up-regulation of GCK,hESC-derived EPs; 5-day WNT5A treatment,9 fold
same,up-regulation of INS,hESC-derived EPs; 5-day WNT5A treatment,81 fold
same,up-regulation of NEUROD1,hESC-derived EPs; 5-day WNT5A treatment,56 fold
same,up-regulation of PCSK2,hESC-derived EPs; 5-day WNT5A treatment,7 fold
same,up-regulation of SYT4,hESC-derived EPs; 5-day WNT5A treatment,16 fold
same,"expression of BMP3, 4, and 6, GDF5 and 9 (in words)",hESC-derived EPs; [1],downregulated
same,expression of DCN and BMP antagonist BMPER (in words),hESC-derived EPs; [1],upregulated
same,JNK expression and phosphorylation (in words),JNK,increased
same,increase in p-c-JUN (number of c-JUN+ cells) compared to untreated control,c-JUN,9 fold and 6 fold
same,AP-1 activity (in words),AP-1,activates
